Data on three substances can be found in article PMC11109247.

Test [1] deals with ephrinB2-Fc chimaera (human ephrin-B2 residues 1-229, IEGRMD linker, human IgG1 residues 100-330) (human) (UniProt P52799). Nature of the test: SDS-PAGE without reduction and boiling.
Test [2] deals with ephrinB3-Fc chimaera (human ephrin-B3 residues 28-224, IEGRMD linker, human IgG1 residues 100-330) (human) (UniProt Q15768). Nature of the test: SDS-PAGE without reduction and boiling.
Test [3] deals with soluble NiVMY G ectodomain used for structural determination (residues 72-602, His tag) (Nipah virus Malaysia (NiVMY)) (UniProt Q9IH62). Nature of the test: negative-stain electron microscopy; soluble NiVMY G ectodomain alone.

Sequence of soluble NiVMY G ectodomain used for structural determination (residues 72-602, His tag) (Q9IH62 72-602): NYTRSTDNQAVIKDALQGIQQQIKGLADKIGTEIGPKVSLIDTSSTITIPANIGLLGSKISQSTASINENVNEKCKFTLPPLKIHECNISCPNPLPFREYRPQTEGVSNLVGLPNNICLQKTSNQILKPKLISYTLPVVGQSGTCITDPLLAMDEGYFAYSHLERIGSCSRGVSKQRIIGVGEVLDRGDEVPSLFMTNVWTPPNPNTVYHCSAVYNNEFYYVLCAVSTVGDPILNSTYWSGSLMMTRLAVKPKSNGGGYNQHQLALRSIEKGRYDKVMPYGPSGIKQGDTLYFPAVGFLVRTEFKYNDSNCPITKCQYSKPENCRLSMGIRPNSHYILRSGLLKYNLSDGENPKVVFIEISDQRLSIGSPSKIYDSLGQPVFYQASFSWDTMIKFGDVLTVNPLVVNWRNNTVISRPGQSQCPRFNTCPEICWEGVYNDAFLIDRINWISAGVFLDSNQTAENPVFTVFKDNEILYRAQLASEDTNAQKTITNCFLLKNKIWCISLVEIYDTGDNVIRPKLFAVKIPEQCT
Sequence of ephrinB2-Fc chimaera (human ephrin-B2 residues 1-229, IEGRMD linker, human IgG1 residues 100-330) (P52799 28-229): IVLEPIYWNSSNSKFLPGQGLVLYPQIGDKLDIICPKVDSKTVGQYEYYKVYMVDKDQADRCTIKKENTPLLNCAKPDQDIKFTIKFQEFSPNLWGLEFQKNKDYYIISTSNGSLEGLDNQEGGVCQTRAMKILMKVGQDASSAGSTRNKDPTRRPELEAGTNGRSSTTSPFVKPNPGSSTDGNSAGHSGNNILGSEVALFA
Sequence of ephrinB3-Fc chimaera (human ephrin-B3 residues 28-224, IEGRMD linker, human IgG1 residues 100-330) (Q15768 28-224): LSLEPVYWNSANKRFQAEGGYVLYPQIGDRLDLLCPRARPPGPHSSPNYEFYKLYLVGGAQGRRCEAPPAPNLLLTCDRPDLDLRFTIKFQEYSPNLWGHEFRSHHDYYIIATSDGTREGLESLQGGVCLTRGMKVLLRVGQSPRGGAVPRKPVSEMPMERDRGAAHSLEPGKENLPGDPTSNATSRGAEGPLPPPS

Usually stoichiometry N stands for a count of units in the complex or per binding partner. As for “ephrinB2-Fc chimaera (human ephrin-B2 residues 1-229, IEGRMD linker, human IgG1 residues 100-330) (from UniProt P52799 28-229) (Fc fusion)”, the stoichiometry N in test [1] was 2.

Turning to “ephrinB3-Fc chimaera (human ephrin-B3 residues 28-224, IEGRMD linker, human IgG1 residues 100-330) (from UniProt Q15768 28-224) (Fc fusion)”, the stoichiometry N in test [2] turned out to be 2.

On to “soluble NiVMY G ectodomain used for structural determination (residues 72-602, His tag) (from UniProt Q9IH62 72-602) (domain or fragment)”, for which the stoichiometry N in test [3] worked out at 4.
